# Results taken from US20140245492.
# Molecular target: ubiquitin
protein,measurement,value
MBP-AtAIRP2 (fusion of maltose-binding protein and Arabidopsis thaliana ABA Insensitive Ring Protein 2) (protein) MRKSFKDSLKALEADIQFANTLASEYPEEYDGGYVQMRLSYSPAAHLFLFLLQWTDCHFAGALGLLRILIYKAYVDGKTTMSLHERKTSIREFYDVLFPSLLQLHGGITDVEERKQKEICDKRYRKKDRTDKGKMSEIDLEREEECGICLEIRNKVVLPTCNHSMCINCYRNWRARSQSCPFCRGSLKRVNSGDLWIYTCSAEIADLPAIYKENLKRLLIYIDKLPLVTSDPNLVPYAPLPR,"Self-Ubiquitination (in vitro, with UBA1, UBC8 and ubiquitin, 30° C. for 1 hour; Western blot using MBP- and ubiquitin-specific antibodies)","the molecular weight of the AtAIRP2 protein was increased through Western blot using anti-MBP antibody, and the increase was induced due to ubiquitin"
